# Results reported in article PMC3967914.
# Molecular target: MHF1 (CENP-S);MHF2 (CENP-X) (Homo sapiens;Homo sapiens, UniProt Q8N2Z9;A8MT69 1-138;1-81, |)
# Assay: X-ray crystallography
# Sequence of MHF1 (CENP-S);MHF2 (CENP-X) (Q8N2Z9 whole entry, chain 1 of 2): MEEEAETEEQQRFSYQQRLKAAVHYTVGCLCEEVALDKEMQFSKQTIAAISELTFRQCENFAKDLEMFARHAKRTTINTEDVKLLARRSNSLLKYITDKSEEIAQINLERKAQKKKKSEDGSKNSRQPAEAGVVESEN
# Sequence of MHF1 (CENP-S);MHF2 (CENP-X) (A8MT69 whole entry, chain 2 of 2): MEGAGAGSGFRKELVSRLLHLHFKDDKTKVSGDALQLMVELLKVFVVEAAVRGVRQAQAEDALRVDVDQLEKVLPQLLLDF
binder,measurement,value
26 bp dsDNA (crystal) (dsDNA) DNA 1: ATCAATATCCACCGGTGGATATTGAT DNA 2: ATCAATATCCACCGGTGGATATTGAT,binding result,binds
